Laboratory results as given in FireProtDB (doi:10.1002/pro.5560030904).
Several values for one entry are separate records, joined by “and”; a condition that tells them apart may be missing. Identical values can stand only once.

B1: Fructose-bisphosphate aldolase A, P00883 (parent)
chain: MPHSHPALTPEQKKELSDIAHRIVAPGKGILAADESTGSIAKRLQSIGTENTEENRRFYRQLLLTADDRVNPCIGGVILFHETLYQKADDGRPFPQVIKSKGGVVGIKVDKGVVPLAGTNGETTTQGLDGLSERCAQYKKDGADFAKWRCVLKIGEHTPSALAIMENANVLARYASICQQNGIVPIVEPEILPDGDHDLKRCQYVTEKVLAAVYKALSDHHIYLEGTLLKPNMVTPGHACTQKYSHEEIAMATVTALRRTVPPAVTGVTFLSGGQSEEEASINLNAINKCPLLKPWALTFSYGRALQASALKAWGGKKENLKAAQEEYVKRALANSLACQGKYTPSGQAGAAASESLFISNHAY

Variants of: B1
Details: Oryctolagus cuniculus; pH 7.4; Thermal; DSC; sodium phosphate 10 mM; transition: 3; reversible: yes; structure 1ADO; whole UniProt chain shown

| Variant | Tm | change of melting temperature, mutant - wild type (higher = more stable) | unfolding enthalpy (calorimetric) |
| --- | --- | --- | --- |
| D129V | 43.9 °C and 46.5 °C | -11.8 °C and -12.2 °C | 91 kcal/mol and 78 kcal/mol |
| D129A | 46.8 °C | -11.9 °C | 71 kcal/mol |
| D129G | 44 °C and 46 °C | -11.7 °C and -12.7 °C | 67 kcal/mol and 73 kcal/mol |
| D129Q | 45.9 °C and 47.1 °C | -9.8 °C and -11.6 °C | 67 kcal/mol and 77 kcal/mol |
| D129N | 45.6 °C and 47 °C | -10.1 °C and -11.7 °C | 80 kcal/mol and 83 kcal/mol |
